Data set [1] deals with the molecule itself. Kind of data set: self-assembly assay, rhodamine dequenching after proteinase K, PC:Cholesterol LUVs (FIG. 7D). How it is done: (7A-7B) Rhodamine conjugated TLR peptides mTLR2 TM N′-CtoA (SEQ ID NO:88), mTLR2 TM C′-CtoA (SEQ ID NO:86), mTLR1 TM N′ (SEQ ID NO:77) and mTLR1 TM C′-CtoA (SEQ ID NO:83), were added to HEPES solution and their emission at 585 nm was recorded before and after the addition of proteinase K. The addition of the proteinase K is indicated by a black arrow. mTLR1 TM C′-CtoA (SEQ ID NO:83), mTLR1 TM N′ (SEQ ID NO:77) and mTLR2 TM C′-CtoA (SEQ ID NO:86) are capable to self assemble in solution, to a very slight extent (7A). mTLR2 TM N′-CtoA (SEQ ID NO:88) highly oligomerise in solution (black line, 7B) and is partially dissociated in the presence of LUVs (gray line, 7B). […] LL37 is shown as an example for a peptide that is highly oligomerised in liposomes (7D).
We have tested this characteristic, both in solution and on a membrane interface. We measured the initial emission of rhodamine labeled peptides at 580 nm in solution only, or in a solution containing PC:Cholesterol LUVs, and then followed the increase of the emission over time after the addition of protease-K to the medium. […] The known oligomeric antimicrobial peptide LL37 (Rosenfeld et al., 2006a) was used as a positive control.

In another data set the target is T1, mTLR1 TM C′-CtoA (mouse, N-terminal fluorescein (FRET donor) or N-terminal rhodamine (TAMRA) label, depending on the assay; synthesized on Rink amide MBHA resin).
T1 construct: Synthetic peptide; Tested in PC:Cholesterol LUVs or HEPES buffer; also called mTLR1 C′ TM (C to A); TLR1 TM C-terminus peptide
T1 peptide: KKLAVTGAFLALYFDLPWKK
Description: FRET in PC:Cholesterol LUVs, fluorescein-mTLR1 TM C′-CtoA donor, rhodamine-Cp acceptor (FIG. 2A). The text has this: FIGS. 2A-2C show fluorescence resonance energy transfer (FRET) between mTLR1 TM C′-CtoA (SEQ ID NO:83) and other TM peptides. mTLR1 TM C′ peptide was labeled with fluorescein (Donor) and loaded on PC:Cholesterol large unilamellar vesicles (LUVs). Changes in the intensity of the emission signal were monitored between 500 to 600 nm, upon the addition of successive amounts of rhodamine labeled mTLR1 TM C′-CtoA (SEQ ID NO:83; homodimers, 2B) and mTLR2 TM C′-CtoA (SEQ ID NO:86; heterodimers, 2C). Rhodamine labeled TCRα TM domain peptide (Cp; […]-NH2, SEQ ID NO:123) was used as a negative control (2A).
(§1) Large unilamellar vesicles (LUVs) composed of phosphatidylcholine (PC) and cholesterol (10:1, w/w), were prepared using the extrusion method as described previously (Cohen et al, 2008). The fluorescence experiments were performed with pairs of peptides using fluorescein labeled peptides as donors and rhodamine labeled peptides as acceptors. Fluorescence spectra were obtained at room temperature, with excitation set at 494 nm (10 nm slit) and emission scan at 500-600 nm (10 nm slits), by a Cary eclipse fluorescence spectrophotometer (Varian Inc., Palo Alto, Calif.). […] Fluorescence spectra were obtained before and after the addition of the rhodamine labeled peptides. Fluorescence values were corrected by subtracting the changes in emission obtained by adding HEPES only. […]

The target of the next data set is T2, mTLR1 TM N′ (mouse, N-terminal fluorescein (FRET donor) or N-terminal rhodamine (TAMRA) label, depending on the assay; synthesized on Rink amide MBHA resin).
T2 construct: Synthetic peptide; Tested in PC:Cholesterol LUVs or HEPES buffer; also called mTLR1 N′ TM; TLR1 TM N-terminus peptide
T2 peptide: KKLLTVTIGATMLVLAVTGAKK
Description: FRET in PC:Cholesterol LUVs, fluorescein-mTLR1 TM N′ donor, rhodamine-Cp acceptor (FIG. 3A).
Excerpt: FIGS. 3A-3C show FRET between mTLR1 TM N′ (SEQ ID NO:77) and other TM peptides. mTLR1 TM N′ peptide labeled with fluorescein (donor) and loaded on PC:Cholesterol LUVs. Changes in the intensity of the emission signal were monitored between 500 to 600 nm, upon the addition of successive amounts of rhodamine labeled mTLR1 TM N′ (SEQ ID NO:77; homodimers, 3B) and mTLR2 TM N′-CtoA (SEQ ID NO:88; heterodimers, 3C). Rhodamine labeled TCRα TM domain peptide (Cp; […]-NH2, SEQ ID NO:123) was used as a negative control (3A).
as §1

Ends that are not written are not given here.

This is an account of results in patent US20130225478A1 (YEDA RESEARCH AND DEVELOPMENT, published 2013).

B1: LL37 (peptide, UniProt P49913 134-170, looked up)
peptide: LLGDFFRKSKEKIGKEFKRIVQRIKDFLRNLVPRTES
modifications: also: rhodamine label
notes: Positive control of the self-assembly assay; LL-37 is the C-terminal 37 residues of the cathelicidin precursor; also called oligomeric antimicrobial peptide LL37
With B1, the binding result in data set [1] is recorded as “binds”.

B2: Cp, the core TM peptide of TCRα (peptide)
peptide: GLRILLLKV-NH2
modifications: also: rhodamine label
notes: Negative control in the FRET experiments; also called TCRα TM domain peptide
Consider B2, for which the binding result with mTLR1 TM C′-CtoA and with mTLR1 TM N′ was “no binding” each time.
